Measurements as given in paper PMC8326117 (2021).

Molecular target: SARS-CoV-2 S-protein RBD (SARS-CoV-2, UniProt P0DTC2)
Assay: SPR

Binder KKKKKKDKFNHEAEDLFY [S-protein neutralizing peptide AYn1] has a koff of 0.001 s⁻¹.
